Here are results for two substances from article PMC7897488.

The term stoichiometry N denotes the number of molecules, sites or subunits per partner or assembly.

For assay [1], the target named is VcaM4I Helix-HNH fragment (residues 148-309) (Vibrio campbellii). Put plainly: SEC; Superdex 75 10/300 GL, 15 mM Tris-HCl (pH 8.5), 0.3 M NaCl, 1 mM TCEP; bovine serum albumin, ovalbumin, myoglobin and vitamin B12 as molecular mass standards.
The target in assay [2] is VcaM4I HNH domain H224A variant (residues 179-309) (Vibrio campbellii). Described as above.

Substance “VcaM4I Helix-HNH fragment (residues 148-309) (domain or fragment)” showed a stoichiometry N in assay [1] of 2.

“VcaM4I HNH domain H224A variant (residues 179-309) (domain or fragment)” showed a stoichiometry N in assay [2] of 2.
